Biological target: T1, recombinant N-terminal His-tagged full-length SAMHD1 (human, UniProt Q9Y3Z3 1-626)
T1 construct: also called recombinant FL SAMHD1; recombinant SAMHD1
Test: pull-down; in vitro pull-down of purified recombinant proteins with an anti-SAMHD1 antibody, analyzed by immunoblot; performed as described in ref. 16
Conditions: both partners purified

T1 sequence (Q9Y3Z3 whole entry): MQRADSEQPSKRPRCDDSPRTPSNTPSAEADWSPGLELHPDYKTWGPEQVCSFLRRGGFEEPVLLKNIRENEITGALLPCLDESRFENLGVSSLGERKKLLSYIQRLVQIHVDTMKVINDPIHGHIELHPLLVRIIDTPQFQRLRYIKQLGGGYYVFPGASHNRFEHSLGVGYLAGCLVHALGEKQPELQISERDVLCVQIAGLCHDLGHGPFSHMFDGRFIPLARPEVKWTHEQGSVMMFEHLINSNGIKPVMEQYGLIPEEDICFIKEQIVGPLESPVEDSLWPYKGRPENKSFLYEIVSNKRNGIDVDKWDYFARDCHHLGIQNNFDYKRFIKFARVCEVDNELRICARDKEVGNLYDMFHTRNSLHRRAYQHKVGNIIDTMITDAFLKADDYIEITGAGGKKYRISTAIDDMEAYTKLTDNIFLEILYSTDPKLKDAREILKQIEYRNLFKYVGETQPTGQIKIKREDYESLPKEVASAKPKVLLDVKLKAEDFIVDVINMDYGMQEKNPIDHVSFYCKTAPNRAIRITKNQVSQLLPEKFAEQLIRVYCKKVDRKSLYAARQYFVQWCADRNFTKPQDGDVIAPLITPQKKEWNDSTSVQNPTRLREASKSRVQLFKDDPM

binding result: binds
B1: purified His-tagged MAVS without the TM domain (aa 1-513) (domain or fragment, human, UniProt Q7Z434 1-513, looked up)
chain: MPFAEDKTYKYICRNFSNFCNVDVVEILPYLPCLTARDQDRLRATCTLSGNRDTLWHLFNTLQRRPGWVEYFIAALRGCELVDLADEVASVYQSYQPRTSDRPPDPLEPPSLPAERPGPPTPAAAHSIPYNSCREKEPSYPMPVQETQAPESPGENSEQALQTLSPRAIPRNPDGGPLESSSDLAALSPLTSSGHQEQDTELGSTHTAGATSSLTPSRGPVSPSVSFQPLARSTPRASRLPGPTGSVVSTGTSFSSSSPGLASAGAAEGKQGAESDQAEPIICSSGAEAPANSLPSKVPTTLMPVNTVALKVPANPASVSTVPSKLPTSSKPPGAVPSNALTNPAPSKLPINSTRAGMVPSKVPTSMVLTKVSASTVPTDGSSRNEETPAAPTPAGATGGSSAWLDSSSENRGLGSELSKPGVLASQVDSPFSGCFEDLAISASTSLGMGPCHGPEENEYKSEGTFGIHVAENPSIQLLEGNPGPPADPDGGPRPQADRKFQEREVPCHRPSP
notes: also called MAVS without TM; recombinant MAVS without the TM domain; source: bought: Origene (AR50771PU-N); purified from E. coli
